Here are results for 1 substance from patent US20100029568A1, “TIGHTER-BINDING C-PEPTIDE INHIBITORS OF HIV-1 ENTRY” (priority 2007, published 2010).

The target in experiment [1] is Res 4 (SDTV) Env from HIV-1 strain HXB2 (HIV-1 strain HXB2) (UniProt P04578). Put plainly: cell-based or functional assay.
The target of experiment [2] is wild type Env (gp120/gp41) from HIV-1 strain HXB2 (HIV-1 strain HXB2) (UniProt P04578). As to the kind of experiment: cell-based or functional assay.

As for T20 (peptide), the IC50, nM; inhibitory potency against pseudotyped HIV-1 in experiment [1] turned out to be 900 nM; in experiment [2] it was 2.3 nM.
